Substitutions are numbered along the chain they refer to. Names may count otherwise.
T1: His-TRAF6_(310-522) (human, UniProt Q9Y4K3 310-522)
T1 construct: also called His-T6; recombinant TRAF6 wild-type; source: E. coli BL21 Codon Plus RIPL, purified (Ni-NTA)
T1 sequence: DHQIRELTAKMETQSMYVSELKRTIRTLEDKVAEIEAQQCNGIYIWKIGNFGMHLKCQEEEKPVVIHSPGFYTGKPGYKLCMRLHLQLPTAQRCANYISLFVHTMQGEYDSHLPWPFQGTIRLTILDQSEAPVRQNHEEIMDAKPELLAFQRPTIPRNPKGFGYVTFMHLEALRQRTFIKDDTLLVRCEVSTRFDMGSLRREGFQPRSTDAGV

B1: 371-T6wt: TRAF6 wild-type coexpressed with LMP1Δ371-386 (protein, UniProt Q9Y4K3 1-522, looked up)
TNF receptor-associated …: MSLLNCENSCGSSQSESDCCVAMASSCSAVTKDDSVGGTASTGNLSSSFMEEIQGYDVEFDPPLESKYECPICLMALREAVQTPCGHRFCKACIIKSIRDAGHKCPVDNEILLENQLFPDNFAKREILSLMVKCPNEGCLHKMELRHLEDHQAHCEFALMDCPQCQRPFQKFHINIHILKDCPRRQVSCDNCAASMAFEDKEIHDQNCPLANVICEYCNTILIREQMPNHYDLDCPTAPIPCTFSTFGCHEKMQRNHLARHLQENTQSHMRMLAQAVHSLSVIPDSGYISEVRNFQETIHQLEGRLVRQDHQIRELTAKMETQSMYVSELKRTIRTLEDKVAEIEAQQCNGIYIWKIGNFGMHLKCQEEEKPVVIHSPGFYTGKPGYKLCMRLHLQLPTAQRCANYISLFVHTMQGEYDSHLPWPFQGTIRLTILDQSEAPVRQNHEEIMDAKPELLAFQRPTIPRNPKGFGYVTFMHLEALRQRTFIKDDTLLVRCEVSTRFDMGSLRREGFQPRSTDAGV
B2: GST-LMP1_(181-386) L382A (domain or fragment)
chain: LIWMYYHGQRHSDEHHHDDSLPHPQQATDDSGHESDSNSNEGRHHLLVSGAGDGPPLCSQNLGAPGGGPDNGPQDPDNTDDNGPQDPDNTDDNGPHDPLPQDPDNTDDNGPQDPDNTDDNGPHDPLPHSPSDSAGNDGGPPQLTEEVENKGGDQGPPLMTDGGGGHSHDSGHGGGDPHLPTLLLGSSGSGGDDDDPHGPVQASYYD
notes: source: E. coli DH5α or BL21 Codon Plus RIPL, purified (glutathione Sepharose 4B)
B3: GST-LMP1_(181-386) Y384F (domain or fragment)
chain: B2 chain with A202L, Y204F
notes: also called LMP1 Y384F; source: E. coli DH5α or BL21 Codon Plus RIPL, purified (glutathione Sepharose 4B)
B4: GST-LMP1_(181-386) Q381E (domain or fragment)
chain: B2 chain with Q201E, A202L
notes: also called LMP1 Q381E; source: E. coli DH5α or BL21 Codon Plus RIPL, purified (glutathione Sepharose 4B)
B5: GST-RANK_(314-355) (domain or fragment)
chain: GGGPYAQGEDARMLSLVSKTEIEEDSFRQMPTEDEYMDRPSQ
notes: also called TRANCE receptor; source: E. coli DH5α or BL21 Codon Plus RIPL, purified (glutathione Sepharose 4B)
B6: GST-LMP1_(181-386) S383A (domain or fragment)
chain: B2 chain with A202L, S203A
notes: as for B2
B7: GST-LMP1_(181-386) Y385A (domain or fragment)
chain: B2 chain with A202L, Y205A
notes: also called mutation of Y385 (alanine scan); source: E. coli DH5α or BL21 Codon Plus RIPL, purified (glutathione Sepharose 4B)

Assays:
HA-LMP1 = assay: Confocal immunofluorescence colocalization of Flag-TRAF6 with HA-LMP1 in HeLa cells; format: cell-based, Epstein-Barr virus; settings: mean of ten cells
Experimental: HeLa cells were seeded onto cover glasses (Thermo Scientific, Menzel) in 24-well plates one day before transfection. Cells were transfected at 50–60% confluency with 50 ng of pCMV-HA-LMP1 plasmids and 100 ng of pRK5-Flag-TRAF6 plasmids, adjusted to a total of 500 ng DNA per sample with pRK5 empty vector, using Lipofectamine 2000 (Thermo Fisher Scientific) according to the manufacturer’s instructions. At 24 h posttransfection, cells were washed once with PBS and fixed with 4% paraformaldehyde (Sigma-Aldrich) for 20 min at RT, followed by permeabilization with 0.3% (v/v) Triton X-100 and blocking with 5% (v/v) FBS in PBS for 1 h at RT. For immunostaining, the cells were incubated overnight with the primary antibodies α-HA (1:1000, clone 16B12, BioLegend) and α-DYKDDDDK (1:1000, clone L5, BioLegend) at 4 °C. The secondary antibodies goat α-mouse Alexa 488 (1:500, cross-adsorbed, Invitrogen, #A-11029) and goat α-rat Alexa 555 (1:500, cross-adsorbed, Invitrogen, #A-21434) were added for 1.5 h at RT. Microscope slides were sealed with cover glasses using Mowiol mounting medium (Sigma-Aldrich). Nuclei were stained with Hoechst 33258 (Sigma-Aldrich). All samples were imaged using a Leica TCS SP5 confocal microscope with 405 nm, 488 nm, 543 nm or 633 nm laser lines, scanning each channel separately under image capture conditions that eliminated channel overlap. For each single experiment, 10 transfected cells positive for both constructs were randomly captured as single-cell images for quantification. The resulting images were then analyzed using the Leica TCS SP5 colocalization analyses application (LAS AF Version 2.7.3.9723). Analysis was performed with default parameters.

His-TRAF6_(310-522) = target: T1, His-TRAF6_(310-522); assay: AlphaScreen or HTRF; AlphaScreen PPI assay: His-TRAF and GST-LMP1, GST-CD40 or GST-RANK in PBS with 0.5% BSA and 0.1% Tween-20, 1 h at RT; standard 300 nM His-TRAF and 100 nM GST protein if not indicated otherwise; for KD His-TRAF6 at different concentrations, fit one site-specific binding with hill slope; settings: both partners purified

Row | Molecule | binding result (His-TRAF6_(310-522)) | also measured
1 | B1 | – | colocalization of TRAF6 with LMP1, mean (HA-LMP1): 32.37
2 | B2 | binds | –
3 | B3 | binds | –
4 | B4 | – | Kd (His-TRAF6_(310-522)): 14.7 nM
5 | B5 | – | Kd (His-TRAF6_(310-522)): 7.7 nM
6 | B6 | binds | –
7 | B7 | binds | –
